Source: patent US20110097340A1 (SCHERING, published 2011)

Tests used:
hVEGF121-M81A = molecular target: T1, hVEGF121-M81A (human, UniProt P15692-9 27-147); assay: sandwich ELISA, antibody coated
T1 construct: Transiently expressed in CHO-K1 cells; culture supernatant used
T1 sequence (looked up): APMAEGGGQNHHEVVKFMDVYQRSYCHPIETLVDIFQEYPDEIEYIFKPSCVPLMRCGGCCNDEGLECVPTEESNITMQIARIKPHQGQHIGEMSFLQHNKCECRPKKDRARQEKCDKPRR
Experimental: (§1) Mutants were transiently expressed in CHO-K1 cells, and cell supernatants were collected for binding analysis by ELISA.
(§2) The plate was blocked with 30% ChemiBlock™ reagent (Millipore) in PBS for one hour at room temperature, and 30, 60, or 100 μl of CHO-K1 culture supernatant for each mutant, or 1 μg/ml of wild-type hVEGF₁₂₁, recombinant hVEGF₁₆₅, or recombinant mVEGF₁₆₅, was added to appropriate wells. After one hour of incubation, the plate was washed and incubated with a biotinylated goat polyclonal anti-VEGF antibody for one hour at room temperature. Detection was performed with HRP-conjugated streptavidin, followed by TMB chromogenic substrate (Calbiochem) using manufacturer protocol.

murine VEGF165 [1] = molecular target: T2, murine VEGF165 (murine, UniProt Q00731-2 27-190); assay: sandwich ELISA, antibody coated
T2 construct: also called mVEGF165; rMu-VEGF165
T2 sequence (looked up): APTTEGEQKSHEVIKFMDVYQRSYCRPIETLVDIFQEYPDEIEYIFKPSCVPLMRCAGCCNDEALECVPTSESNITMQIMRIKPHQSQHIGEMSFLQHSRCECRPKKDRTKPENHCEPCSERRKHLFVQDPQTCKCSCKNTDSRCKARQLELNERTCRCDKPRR
Experimental: as §1, §2

hVEGF121-Q89A = molecular target: T3, hVEGF121-Q89A (human, UniProt P15692-9 27-147, Q89A); assay: sandwich ELISA, antibody coated
T3 construct: Transiently expressed in CHO-K1 cells; culture supernatant used
T3 sequence (looked up): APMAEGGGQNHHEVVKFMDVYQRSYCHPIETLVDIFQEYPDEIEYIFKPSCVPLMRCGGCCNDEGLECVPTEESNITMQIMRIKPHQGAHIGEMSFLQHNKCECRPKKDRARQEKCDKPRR
Experimental: as §1, §2

hVEGF121-G88S = molecular target: T4, hVEGF121-G88S (human, UniProt P15692-9 27-147, G88S); assay: sandwich ELISA, antibody coated
T4 construct: Transiently expressed in CHO-K1 cells; culture supernatant used
T4 sequence (looked up): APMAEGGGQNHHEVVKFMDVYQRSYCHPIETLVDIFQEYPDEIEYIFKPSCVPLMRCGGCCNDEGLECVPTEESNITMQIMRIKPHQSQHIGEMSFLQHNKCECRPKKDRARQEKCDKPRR
Experimental: as §1, §2

human VEGF165 [2] = molecular target: T5, human VEGF165 (human, UniProt P15692 207-395); assay: sandwich ELISA, antibody coated
Experimental: as §1, §2

hVEGF121-G92A = molecular target: T6, hVEGF121-G92A (human, UniProt P15692-9 27-147, G92A); assay: sandwich ELISA, antibody coated
T6 construct: Transiently expressed in CHO-K1 cells; culture supernatant used
T6 sequence (looked up): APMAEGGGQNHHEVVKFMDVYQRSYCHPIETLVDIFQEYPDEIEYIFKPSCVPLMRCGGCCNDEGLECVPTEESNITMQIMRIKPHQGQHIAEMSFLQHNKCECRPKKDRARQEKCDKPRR
Experimental: as §1, §2

wild-type hVEGF121 = molecular target: T7, wild-type hVEGF121 (human, UniProt P15692-9 27-147); assay: sandwich ELISA, antibody coated
T7 sequence (looked up): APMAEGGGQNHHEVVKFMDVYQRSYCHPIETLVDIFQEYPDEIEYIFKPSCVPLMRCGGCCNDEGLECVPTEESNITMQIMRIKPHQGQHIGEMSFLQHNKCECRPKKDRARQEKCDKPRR
Experimental: as §1, §2

human VEGF165 [3] = molecular target: T5, human VEGF165; assay: cell-based or functional assay
human VEGF165 [4] = molecular target: T5, human VEGF165; assay: Biacore (SPR)
human VEGF165 [5] = molecular target: T5, human VEGF165; assay: cell-based or functional assay; remark: listed apart in the source
Target sequence in this assay (P15692 other isoform, or with tags, fused parts or gaps limits assumed): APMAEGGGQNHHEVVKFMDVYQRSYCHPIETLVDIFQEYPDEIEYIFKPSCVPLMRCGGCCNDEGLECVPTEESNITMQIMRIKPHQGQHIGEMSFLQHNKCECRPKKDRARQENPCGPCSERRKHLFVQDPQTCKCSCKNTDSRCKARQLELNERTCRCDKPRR

murine VEGF165 [6] = molecular target: T2, murine VEGF165; assay: Biacore 2000, mVEGF165 amine-coupled on C1 chip, antibody injected
Experimental: (§3) The VEGF binding affinity of these IgGs was tested on a Biacore 2000® by injecting the antibodies over a very low density antigen surface. Human or murine VEGF₁₆₅ was immobilized via standard amine coupling methods to flow cells on a C1 (planar carboxy surface) chip. Approximately 85 RU of each antigen was immobilized and a reference flow cell was activated and blocked. Antibodies were injected over the chip surface for 400 seconds at two different concentrations, after which dissociation was monitored. Data was analyzed by Scrubber® using double referencing and fitting with a 1:1 interaction. Regenerations were performed with 90 mM HCl with 500 mM NaCl.

human VEGF165 [7] = molecular target: T5, human VEGF165; assay: Biacore 2000, hVEGF165 amine-coupled on C1 chip, antibody injected, 1:1 fit
Experimental: as §3
Target sequence in this assay (P15692 other isoform, or with tags, fused parts or gaps limits assumed): as above

**Q.** “control polyclonal goat anti-human VEGF (antibody)” was tested. Which Raw data (ELISA signal) (hVEGF121-M81A) did it give?
**A.** 1.71

**Q.** What about the fold binding over CHO background (hVEGF121-M81A) of the same molecule?
**A.** 18.8 fold

**Q.** What about the Raw data (ELISA signal) (murine VEGF165 [1]) of the same molecule?
**A.** 0.0939

**Q.** What about the fold binding over CHO background (murine VEGF165 [1]) of the same molecule?
**A.** 1 fold

**Q.** What about the Raw data (ELISA signal) (hVEGF121-Q89A) of the same molecule?
**A.** 0.985

**Q.** What about the fold binding over CHO background (hVEGF121-Q89A) of the same molecule?
**A.** 10.8 fold

**Q.** And the Raw data (ELISA signal) (hVEGF121-G88S)?
**A.** 0.769

**Q.** What about the fold binding over CHO background (hVEGF121-G88S) of the same molecule?
**A.** 8.4 fold

**Q.** And the Raw data (ELISA signal) (human VEGF165 [2])?
**A.** 2.45

**Q.** And the fold binding over CHO background (human VEGF165 [2])?
**A.** 26.9 fold

**Q.** And the Raw data (ELISA signal) (hVEGF121-G92A)?
**A.** 2.18

**Q.** What about the fold binding over CHO background (hVEGF121-G92A) of the same molecule?
**A.** 23.9 fold

**Q.** What about the Raw data (ELISA signal) (wild-type hVEGF121) of the same molecule?
**A.** 2.56

**Q.** And the fold binding over CHO background (wild-type hVEGF121)?
**A.** 28 fold

B1: XPA.10.064 scFv-Fc (Fc fusion, part only; not given: linker, gamma-2 Fc, junction, not shown: another chain or arm of the molecule; a dimerising Fc or GST; small tags and cut ends)
VH: EVQLVQSGAEVRKPGASVKVSCKASGYSFTGHYIHWVRQAPGQGLEWMGWINPYSGGTNFPREFQGRVTMTRDTSVNTVYMELTRLTSDDTSVYYCARDHRIVGGLDYWGQGTLVTVSS
VL: SYVLTQPPSASGTPGQRVTISCSGSSSNIGINYVYWYQQLPGTAPKLLIYRNDQRPSGVPDRFSGSKSGTSASLAISGLRSEDEADYYCATWDDSLSGVVFGGGTKVTVL
**Q.** How did the HPP: sf21-hVEGF165, scFvFc (IC50) (human VEGF165 [3]) turn out when B1 was run?
**A.** 0.41 µg/mL

B2: XPA.10.064 after oxidation with tert-butylhydroperoxide (antibody, V domains shown)
VH: EVQLVQSGAEVRKPGASVKVSCKASGYSFTGHYIHWVRQAPGQGLEWMGWINPYSGGTNFPREFQGRVTMTRDTSVNTVYMELTRLTSDDTSVYYCARDHRIVGGLDYWGQGTLVTVSS
VL: SYVLTQPPSASGTPGQRVTISCSGSSSNIGINYVYWYQQLPGTAPKLLIYRNDQRPSGVPDRFSGSKSGTSASLAISGLRSEDEADYYCATWDDSLSGVVFGGGTKVTVL
modifications: partial methionine oxidation after tBHP: Met-48 39%, Met-70 0%, Met-81 28%
notes: also called oxidized XPA.10.064
**Q.** Does B2 bind (human VEGF165 [4])?
**A.** binds

B3: XPA.10.064.07 IgG2 (antibody, V domains shown)
VH: EVQLVQSGAEVRKPGASVKVSCKASGYSFTGHYIHWVRQAPGQGLEWMGWINPYSGGTNFPREFQGRVTMTRDTSVNTVYMELTRLTSDDTSVYYCARDEMHVGGLDYWGQGTLVTVSS
VL: SYVLTQPPSASGTPGQRVTISCSGSSSNIGINYVYWYQQLPGTAPKLLIYRNDQRPSGVPDRFSGSKSGTSASLAISGLRSEDEADYYCATWDDSLSGVVFGGGTKVTVL
notes: IgG2
**Q.** For B3, which “HUVEC proliferation, geometric mean IC50” value (human VEGF165 [5]) is on record?
**A.** 0.129 nM

**Q.** What about the Kd (murine VEGF165 [6]) of the same molecule?
**A.** 130 nM

**Q.** And the Kd (human VEGF165 [7])?
**A.** 0.0349 nM

**Q.** What about the koff (human VEGF165 [7]) of the same molecule?
**A.** 6.65e-06 s⁻¹

**Q.** What about the kon (human VEGF165 [7]) of the same molecule?
**A.** 207000 M⁻¹ s⁻¹

B4: XPA.10.064.10 IgG2 (antibody, V domains shown)
VH: EVQLVQSGAEVRKPGASVKVSCKASGYSFTGHYIHWVRQAPGQGLEWMGWINPYSGGTNFPREFQGRVTMTRDTSVNTVYMELTRLTSDDTSVYYCARDEMVWGGLDYWGQGTLVTVSS
VL: SYVLTQPPSASGTPGQRVTISCSGSSSNIGINYVYWYQQLPGTAPKLLIYRNDQRPSGVPDRFSGSKSGTSASLAISGLRSEDEADYYCATWDDSLSGVVFGGGTKVTVL
notes: IgG2
**Q.** With B4 as the molecule, how does the “HUVEC proliferation, geometric mean IC50” value (human VEGF165 [5]) read?
**A.** 0.139 nM

**Q.** And the Kd (human VEGF165 [7])?
**A.** 0.0556 nM

**Q.** And the koff (human VEGF165 [7])?
**A.** 1.16e-05 s⁻¹

**Q.** What about the kon (human VEGF165 [7]) of the same molecule?
**A.** 216000 M⁻¹ s⁻¹
